In paper PMC3524126, “Live-Cell Visualization of Intracellular Interaction between a Nuclear Migration Protein (hNUDC) and the Thrombopoietin Receptor (Mpl)” (PLoS ONE, 2012):
Values belong to the binder of their own block, whether it stands above or below them.

Biological target: T1, Flag-Mpl-VN (full-length thrombopoietin receptor Mpl fused to the N-terminal half of Venus) (UniProt P40238 26-635)
T1 construct: Inserted between Flag and VN in pBiFC-VN173; also called pFlag-Mpl-VN; source: Cos-1, transiently transfected, in living cells; not shown: Flag, N-terminal, kept; Venus N-terminal fragment 1-173 (VN), C-terminal, kept
T1 sequence (looked up): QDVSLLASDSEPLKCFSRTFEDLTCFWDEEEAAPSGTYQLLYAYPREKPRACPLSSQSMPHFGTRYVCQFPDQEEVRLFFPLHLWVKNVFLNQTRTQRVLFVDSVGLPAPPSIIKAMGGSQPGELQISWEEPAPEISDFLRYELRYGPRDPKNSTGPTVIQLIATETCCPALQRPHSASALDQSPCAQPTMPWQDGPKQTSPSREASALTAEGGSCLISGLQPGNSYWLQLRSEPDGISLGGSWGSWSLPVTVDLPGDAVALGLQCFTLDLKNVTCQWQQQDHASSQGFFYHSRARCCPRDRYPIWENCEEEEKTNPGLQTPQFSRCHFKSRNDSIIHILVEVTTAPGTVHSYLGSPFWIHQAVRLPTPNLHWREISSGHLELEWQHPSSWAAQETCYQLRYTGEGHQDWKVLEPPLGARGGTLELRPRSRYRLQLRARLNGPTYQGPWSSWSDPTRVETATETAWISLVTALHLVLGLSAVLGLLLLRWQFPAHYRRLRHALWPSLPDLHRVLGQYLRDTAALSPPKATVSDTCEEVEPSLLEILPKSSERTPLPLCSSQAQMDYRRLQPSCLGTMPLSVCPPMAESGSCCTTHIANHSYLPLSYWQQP
Assay: split reporter (BiFC, NanoBiT); Venus BiFC read by flow cytometry of Cos-1 cells, 12 h after transfection; 1x10^4 cells, Venus-positive cells against untransfected and empty-vector cells
Details: partners not purified

fold increase of the Venus signal over untransfected Cos-1 cells: 16.7 fold
B1: HA-hNUDC-VC (full-length human NUDC fused to the C-terminal half of Venus) (natural protein)
chain: not shown
notes: Cloned between HA and VC in pBiFC-VC155; also called pHA-hNUDC-VC; phNUDC-VC; source: Cos-1, transiently transfected, in living cells; not shown: HA, N-terminal, kept; Venus C-terminal fragment 155-238 (VC), C-terminal, kept

fold increase of the Venus signal over untransfected Cos-1 cells: 16.2 fold
B2: HA-hNUDC(1-159)-VC (N-terminal half of hNUDC fused to the C-terminal half of Venus) (domain or fragment)
chain: not shown
notes: human NUDC (hNUDC), N-terminal half, residues 1-159; Cloned between HA and VC in pBiFC-VC155; also called pHA-hNUDC(1-159)-VC; source: Cos-1, transiently transfected, in living cells; not shown: HA, N-terminal, kept; Venus C-terminal fragment 155-238 (VC), C-terminal, kept
